Test results as given in patent US20260125472A1 (HEFEI TG IMMUNOPHARMA, published 2026).

Key:
[1] = biological target: T1, Trop2 on A-375-Trop2 melanoma cells (UniProt P09758 27-323, limits assumed); assay: flow cytometry, A-375-Trop2 cells, MFI [panel B]
T1 construct: whole, on cells
T1 sequence (looked up): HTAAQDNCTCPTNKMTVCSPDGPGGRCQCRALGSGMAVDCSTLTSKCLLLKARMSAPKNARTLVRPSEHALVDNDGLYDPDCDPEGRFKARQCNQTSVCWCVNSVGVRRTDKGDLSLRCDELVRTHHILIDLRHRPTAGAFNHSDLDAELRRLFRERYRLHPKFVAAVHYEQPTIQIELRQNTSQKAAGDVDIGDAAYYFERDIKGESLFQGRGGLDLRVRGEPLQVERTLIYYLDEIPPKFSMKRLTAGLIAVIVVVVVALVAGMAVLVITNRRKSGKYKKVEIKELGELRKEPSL
Procedure: (§1) (2) The tumor cells were diluted to 2×10⁶/ml with PBS and added to a 1.5 ml EP tube at a volume of 100 μl/tube, and goat serum was added thereto at 10 μl/tube. The cells were blocked at 4° C. for 30 min. The serially diluted bispecific antibodies, Cross3×Trop2, Cross303×Trop2, Cross307×Trop2, Cross308×Trop2, Cross309×Trop2, Cross310×Trop2, Cross311×Trop2, Cross312×Trop2, Cross313×Trop2, Cross314×Trop2, Cross316×Trop2, Cross317×Trop2, Cross318×Trop2, Cross323×Trop2, Cross325×Trop2, Cross326×Trop2, and Cross3×PDL1, Cross303×PDL1, Cross307×PDL1, Cross308×PDL1, Cross309×PDL1, Cross310×PDL1, Cross311×PDL1, Cross312×PDL1, Cross313×PDL1, Cross314×PDL1, Cross316×PDL1, Cross317×PDL1, Cross318×PDL1, Cross323×PDL1, Cross325×PDL1, Cross326×PDL1, and control hIgG1LALA (purchased from Bio-Tech) were added and incubated at 4° C. for 30 min. 1 ml of PBS was added to the EP tube, followed by centrifugation at 3500 rpm for 5 min at 4° C. The supernatant was discarded, and the cells were washed again with PBS. After centrifugation, the supernatant was completely discarded, and the cells were resuspended with PBS at 100 μl/tube. Alexa-647-labeled goat anti-human IgG secondary antibody (purchased from Jackson lab) was added at 1 μl/tube and incubated at 4° C. in the dark for 30 min. The cells were washed twice with PBS, and the supernatant was completely discarded after centrifugation. The cells were resuspended with PBS at 200 μl/tube and assay was performed using the flow cytometry.

CD3E&D protein = biological target: T2, CD3E&D protein (UniProt P04234 22-105); assay: ELISA, coated CD3E&D protein, OD450
T2 construct: Purchased from Acro; also called CD3 E&D antigens; CD3E&D antigen protein
Excerpt: (§2) In this example, the binding properties of the CD3×Trop2 and CD3×PDL1 bispecific antibody (the production method and the amino acid sequences of the heavy and light chains were shown in Example 1) were detected by using ELISA. The CD3E&D, Trop2, or PDL1 protein was coated onto 96-well plates by inventors, and the strength of the signal after the addition of the antibody was used to determine the binding properties of the antibody and the corresponding protein.
(1) CD3E&D protein (purchased from Acro) was diluted to 2 μg/ml with PBS buffer, added to a 96-well plate at a volume of 100 μL/well, and placed at 4° C. overnight. The PBS buffer in the 96-well plate was aspirated, and the plate was washed 6 times with PBST (pH 7.2 PBS containing 0.1% Tween 20) buffer. Then, 200 μL/well PBS/10% BSA was added and incubated at 37° C. for 2 h for blocking. The blocking solution was removed, and the plate was washed 6 times with PBST. […] The absorbance was read at 450 nm using a microplate reader.

Trop2 protein = biological target: T3, Trop2 protein (UniProt P09758 27-274); assay: ELISA, coated Trop2 protein, OD450
T3 construct: Bought recombinant protein; also called Trop2-Biotin protein (biotin-labelled, bridging ELISA)
T3 sequence (looked up): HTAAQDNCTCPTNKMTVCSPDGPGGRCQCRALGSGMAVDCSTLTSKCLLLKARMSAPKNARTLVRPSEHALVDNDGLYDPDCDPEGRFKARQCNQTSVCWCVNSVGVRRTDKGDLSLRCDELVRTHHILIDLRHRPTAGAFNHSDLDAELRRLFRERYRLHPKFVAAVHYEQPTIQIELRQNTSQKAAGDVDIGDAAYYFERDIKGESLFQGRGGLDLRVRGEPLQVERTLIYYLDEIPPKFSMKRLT
Excerpt: as §2
(2) Trop2 protein (purchased from Acro) was diluted to 2 μg/ml with PBS buffer, added to a 96-well plate at a volume of 100 μL/well, and placed at 4° C. overnight. The PBS buffer in the 96-well plate was aspirated, and the plate was washed 6 times with PBST (pH 7.2 PBS containing 0.1% Tween 20) buffer. Then, 200 μL/well PBS/10% BSA was added and incubated at 37° C. for 2 h for blocking. The blocking solution was removed, and the plate was washed six times with PBST. Then, the to-be-tested bispecific antibodies, Cross3×Trop2, Cross303×Trop2, Cross307×Trop2, Cross308×Trop2, Cross309×Trop2, Cross310×Trop2, Cross311×Trop2, Cross312×Trop2, Cross313×Trop2, Cross314×Trop2, Cross316×Trop2, Cross317×Trop2, Cross318×Trop2, Cross323×Trop2, Cross325×Trop2, Cross326×Trop2, and control IgG1LALA (purchased from Bio-Tech), serially diluted with PBST/0.05% BSA, were added at 100 μL/well and incubated at 37° C. for 1 h. The reaction system was removed, and the plate was washed 6 times with PBST. Then, HRP (horseradish peroxidase)-labeled anti-human secondary antibody (Fab specific) (purchased from Sigma) diluted with PBST/0.05% BSA at 100 μL/well. After the plate was washed six times with PBST, TMB (tetramethylbenzidine) was added at 80 μL/well, and incubated at room temperature for 3 min. 4 M sulfuric acid was added at 80 μL/well to terminate the reaction. The absorbance was read at 450 nm using a microplate reader.

[2] = biological target: T4, PDL1 on A-375 melanoma cells, HCT-15 colorectal cancer cells and A549 lung cancer cells (UniProt Q9NZQ7 19-290, limits assumed); assay: flow cytometry, A549 cells, MFI [panel B]
T4 construct: whole, on cells
Summary of the method: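 Cells were blocked with goat serum at 4° C for 30 min, then incubated with serially diluted bispecific antibodies or hIgG1LALA control at 4° C for 30 min. Bound antibody was detected with Alexa-647 anti-human IgG (4° C, 30 min, dark) and read by flow cytometry.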

PDL1 protein = biological target: T5, PDL1 protein (UniProt Q9NZQ7 19-238); assay: ELISA, coated PDL1 protein, OD450 [panel A]
T5 construct: Bought recombinant protein
Summary of the method: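 PDL1 protein coated at 2 μg/ml overnight at 4 °C, blocked with PBS/10% BSA; serially diluted bispecific antibodies or control IgG1LALA bound 1 h at 37 °C. Detection with HRP anti-human Fab secondary antibody and TMB for 3 min, stopped with sulfuric acid, absorbance at 450 nm.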

[3] = biological target: T4, PDL1 on A-375 melanoma cells, HCT-15 …; assay: flow cytometry, A-375 cells, binding ratio % [panel A]
Procedure: as §1

[4] = biological target: T4, PDL1 on A-375 melanoma cells, HCT-15 …; assay: flow cytometry, HCT-15 cells, binding ratio % [panel A]
Procedure: as §1, with “The cells were resuspended with PBS at 200 μl/tube and assay was performed using the flow cytometry.” left out

T4 sequence (Q9NZQ7 19-290 limits assumed): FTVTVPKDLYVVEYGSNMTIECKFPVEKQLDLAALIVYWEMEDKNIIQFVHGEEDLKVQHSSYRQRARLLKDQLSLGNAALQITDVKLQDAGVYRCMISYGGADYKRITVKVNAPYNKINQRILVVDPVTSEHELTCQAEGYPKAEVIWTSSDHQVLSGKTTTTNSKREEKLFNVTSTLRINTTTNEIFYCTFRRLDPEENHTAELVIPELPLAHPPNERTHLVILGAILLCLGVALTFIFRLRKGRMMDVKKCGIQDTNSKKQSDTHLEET
T5 sequence (Q9NZQ7 19-238 limits assumed): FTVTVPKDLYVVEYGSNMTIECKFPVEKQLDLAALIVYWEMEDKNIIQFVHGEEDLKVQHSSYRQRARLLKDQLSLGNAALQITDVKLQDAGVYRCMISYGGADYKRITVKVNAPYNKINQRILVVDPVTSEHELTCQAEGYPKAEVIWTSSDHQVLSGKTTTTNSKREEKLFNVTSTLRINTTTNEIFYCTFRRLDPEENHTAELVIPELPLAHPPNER
T2 sequence (chain, as listed by the source limits assumed, chain 1 of 2): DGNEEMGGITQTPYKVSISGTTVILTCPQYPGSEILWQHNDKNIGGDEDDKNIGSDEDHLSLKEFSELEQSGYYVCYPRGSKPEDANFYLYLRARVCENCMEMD
T2 sequence (P04234 22-105 limits assumed, chain 2 of 2): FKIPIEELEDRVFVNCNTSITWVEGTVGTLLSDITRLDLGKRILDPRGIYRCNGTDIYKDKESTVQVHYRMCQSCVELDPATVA

Row | Binder | EC50 (read off the curve) [1] | EC50 (read off the curve) (CD3E&D protein) | EC50 (read off the curve) (Trop2 protein) | EC50 (read off the curve) [2] | EC50 (read off the curve) (PDL1 protein) | EC50 (read off the curve) [3] | EC50 (read off the curve) [4]
1 | Cross317×Trop2 (bispecific antibody) scFv: not shown heavy: QVQLQQSGSELKKPGASVKVSCKASGYTFTNYGMNWVKQAPGQGLKWMGWINTYTGEPTYTDDFKGRFAFSLDTSVSTAYLQISSLKADDTAVYFCARGGFGSSYWYFDVWGQGSLVTVSSASTKGPSVFPLAPSSKSTSGGTAALGCLVKDYFPEPVTVSWNSGALTSGVHTFPAVLQSSGLYSLSSVVTVPSSSLGTQTYICNVNHKPSNTKVDKKVEPKSSDKTHTCPPCPAPEAAGGPSVFLFPPKPKDTLMISRTPEVTCVVVDVSHEDPEVKFNWYVDGVEVHNAKTKPREEQYNSTYRVVSVLTVLHQDWLNGKEYKCKVSNKALPAPIEKTISKAKGQPREPQVCTLPPSREEMTKNQVSLSCAVKGFYPSDIAVEWESNGQPENNYKTTPPVLDSDGSFFLVSKLTVDKSRWQQGNVFSCSVMHEALHNHYTQKSLSLSPGK light: DIQLTQSPSSLSASVGDRVSITCKASQDVSIAVAWYQQKPGKAPKLLIYSASYRYTGVPDRFSGSGSGTDFTLTISSLQPEDFAVYYCQQHYITPLTFGAGTKVEIKRTVAAPSVFIFPPSDEQLKSGTASVVCLLNNFYPREAKVQWKVDNALQSGNSQESVTEQDSKDSTYSLSSTLTLSKADYEKHKVYACEVTHQGLSSPVTKSFNRGEC | ~1 µg/mL | ~1 µg/mL | ~0.008 µg/mL | – | – | – | –
2 | Cross310×PDL1 (bispecific antibody, human IgG1, kappa, L234A L235A) scFv: not shown heavy: QVQLVQSGAEVKKPGASVKVSCKASGYSFTGYYMHWVRQAPGQGLEWIGRINPYNGATTYSQNFKDRATMTVDTSISTAYMELSRLRSDDTAVYYCVPTGMGYFLMDYWGQGTLVTVSSASTKGPSVFPLAPSSKSTSGGTAALGCLVKDYFPEPVTVSWNSGALTSGVHTFPAVLQSSGLYSLSSVVTVPSSSLGTQTYICNVNHKPSNTKVDKKVEPKSCDKTHTCPPCPAPEAAGGPSVFLFPPKPKDTLMISRTPEVTCVVVDVSHEDPEVKFNWYVDGVEVHNAKTKPREEQYNSTYRVVSVLTVLHQDWLNGKEYKCKVSNKALPAPIEKTISKAKGQPREPQVCTLPPSREEMTKNQVSLSCAVKGFYPSDIAVEWESNGQPENNYKTTPPVLDSDGSFFLVSKLTVDKSRWQQGNVFSCSVMHEALHNHYTQKSLSLSPGK light: DIQLTQSPSFLSASVGDRVTITCKASQDVGSAVVWYQQKPGKAPKLLIYWASTRHTGVPSRFSGSGSGTEFTLTISSLQPEDFATYFCQQFTSYPTFGQGTKLEIKRTVAAPSVFIFPPSDEQLKSGTASVVCLLNNFYPREAKVQWKVDNALQSGNSQESVTEQDSKDSTYSLSSTLTLSKADYEKHKVYACEVTHQGLSSPVTKSFNRGEC | – | – | – | ~2 µg/mL | ~0.5 µg/mL | ~0.7 µg/mL | ~0.7 µg/mL
